Target: unidentified GPNMB ligand(s) on the surface of SVEC4-10 cells
Assay: flow cytometry, soluble moGPNMB-Fc on SVEC4-10 cells, PE anti-IgG Fc secondary; thin-line histogram shifted right with a tail to about 10^4, thick-line control histogram near 0

- PE-A subset (share of cells in the drawn gate, unit not given): 70.1
B1: soluble mouse GPNMB-Fc polypeptide (Fc of human IgG1 or mouse IgG2A, not specified for the assay) (Fc fusion, UniProt Q99P91 23-502, looked up, not shown: a dimerising Fc or GST)
chain: KRFRDVLGHEQYPDHMREHNQLRGWSSDENEWDEHLYPVWRRGDGRWKDSWEGGRVQAVLTSDSPALVGSNITFVVNLVFPRCQKEDANGNIVYEKNCRNDLGLTSDLHVYNWTAGADDGDWEDGTSRSQHLRFPDRRPFPRPHGWKKWSFVYVFHTLGQYFQKLGRCSARVSINTVNLTAGPQVMEVTVFRRYGRAYIPISKVKDVYVITDQIPVFVTMSQKNDRNLSDEIFLRDLPIVFDVLIHDPSHFLNDSAISYKWNFGDNTGLFVSNNHTLNHTYVLNGTFNLNLTVQTAVPGPCPPPSPSTPPPPSTPPSPPPSPLPTLSTPSPSLMPTGYKSMELSDISNENCRINRYGYFRATITIVEGILEVSIMQIADVPMPTPQPANSLMDFTVTCKGATPMEACTIISDPTCQIAQNRVCSPVAVDGLCLLSVRRAFNGSGTYCVNFTLGDDASLALTSTLISIPGKDPDSPLRAVN

Source: patent US20250270343A1
